{"source": "paper PMC5691159", "about": "(Nature Communications, 2017)", "molecules": {"B1": {"name": "recombinant PfRhopH3-C protein (aa 617–865) with C-terminal hexa-Histidine tag (domain or fragment)", "chain": "QLSCFYPKEFELIKSRMIHPNIVDRILKGIDNLMKSTRYDKMRTMYLDFESSDIFSREKVFTALYNFDSFIKTNEQLKKKNLEEISEIPVQLETSNDGIGYRKQDVLYETDKPQTMDEASYEETVDEDAHHVNEKQHSAHFLDAIAEKDILEEKTKDQDLEIELYKYMGPLKEQSKSTSAASTSDEISGSEGPSTESTSTGNQGEDKTTDNTYKEMEELEEAEGTSNLKKGLEFYKSSLKLDQLDKEKP"}}, "key": {"[1]": {"target": "PfRh5 (Plasmodium falciparum) (UniProt Q8IFM5)", "details": "cited from earlier work"}, "[2]": {"target": "recombinant Cyclophilin B (Sino Biological) (human)", "test": "SPR; Biacore T200, 25 °C; CypB (200 RU) amine-coupled on CM5 chip; analyte injected at 30 µl/min; running buffer 50 mM HEPES, 150 mM NaCl, 5 mM MgCl2, pH 7.4; 1:1 (Langmuir) model"}, "[3]": {"target": "PfRhopH3 on the P. falciparum merozoite surface (P. falciparum (endogenous in merozoites)) (UniProt Q8I395)", "sequence (Q8I395 25-897)": "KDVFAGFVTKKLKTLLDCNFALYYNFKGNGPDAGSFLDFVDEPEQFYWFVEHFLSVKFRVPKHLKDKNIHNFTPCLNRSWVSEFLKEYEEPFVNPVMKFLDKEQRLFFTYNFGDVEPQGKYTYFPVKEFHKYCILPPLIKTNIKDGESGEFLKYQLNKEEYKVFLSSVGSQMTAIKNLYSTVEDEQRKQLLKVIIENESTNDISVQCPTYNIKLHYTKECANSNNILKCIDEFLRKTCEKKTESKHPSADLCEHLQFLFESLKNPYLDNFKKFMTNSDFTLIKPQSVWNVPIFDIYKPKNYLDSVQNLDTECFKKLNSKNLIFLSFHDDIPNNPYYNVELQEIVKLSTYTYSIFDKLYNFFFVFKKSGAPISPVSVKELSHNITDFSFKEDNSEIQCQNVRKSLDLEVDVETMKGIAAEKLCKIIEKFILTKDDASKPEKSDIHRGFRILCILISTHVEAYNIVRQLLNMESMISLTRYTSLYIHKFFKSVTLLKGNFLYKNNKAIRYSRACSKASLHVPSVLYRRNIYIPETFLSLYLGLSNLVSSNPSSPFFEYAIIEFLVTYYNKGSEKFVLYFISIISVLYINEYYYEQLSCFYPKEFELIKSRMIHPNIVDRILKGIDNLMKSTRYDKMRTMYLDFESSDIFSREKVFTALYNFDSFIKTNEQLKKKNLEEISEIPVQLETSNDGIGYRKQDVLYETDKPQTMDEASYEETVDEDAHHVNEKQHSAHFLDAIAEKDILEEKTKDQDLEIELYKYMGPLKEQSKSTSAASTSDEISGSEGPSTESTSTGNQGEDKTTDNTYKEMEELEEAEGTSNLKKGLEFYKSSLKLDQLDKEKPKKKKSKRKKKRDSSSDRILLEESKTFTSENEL", "test": "immunostaining of cells or tissue; free merozoites incubated with 25 µM Cyclophilin B for 2 h at RT, with or without pre-incubation with rabbit anti-PfRhopH3 or anti-Rap2b antibody (1:25, 15 min); bound CypB stained and its fluorescence intensity measured by confocal microscopy (mean of ten merozoites)"}, "[4]": {"target": "recombinant Cyclophilin B (Sino Biological) (human)", "test": "SPR; Biacore T200, 25 °C; […]; running buffer 50 mM HEPES, 150 mM NaCl, 5 mM MgCl2, pH 7.4; 1:1 (Langmuir) model"}, "[5]": {"target": "T1, PfRh5 protein (P. falciparum, UniProt Q8IFM5 25-526)", "T1 sequence": "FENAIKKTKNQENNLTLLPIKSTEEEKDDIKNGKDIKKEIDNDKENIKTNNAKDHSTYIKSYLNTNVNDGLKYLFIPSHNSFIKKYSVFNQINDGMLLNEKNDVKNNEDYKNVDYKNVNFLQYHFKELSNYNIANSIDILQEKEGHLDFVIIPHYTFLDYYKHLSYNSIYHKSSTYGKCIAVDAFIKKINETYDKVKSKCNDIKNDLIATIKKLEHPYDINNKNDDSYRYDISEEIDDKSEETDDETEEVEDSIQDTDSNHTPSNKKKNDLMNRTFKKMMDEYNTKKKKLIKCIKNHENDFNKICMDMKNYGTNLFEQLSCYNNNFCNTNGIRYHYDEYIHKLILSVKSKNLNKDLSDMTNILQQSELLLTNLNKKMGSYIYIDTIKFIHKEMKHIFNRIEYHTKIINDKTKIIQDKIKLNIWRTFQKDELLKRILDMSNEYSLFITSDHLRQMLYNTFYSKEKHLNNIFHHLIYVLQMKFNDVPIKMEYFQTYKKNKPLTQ", "test": "SPR; Biacore T200, 25 °C; […]; running buffer 50 mM HEPES, 150 mM NaCl, 5 mM MgCl2, pH 7.4; 1:1 model", "details": "both partners purified"}}}
{"molecule": "Basigin (from UniProt P35613)", "values": [{"measurement": "Kd", "setting": "[1]", "value": 1120, "unit": "nM"}]}
{"molecule": "recombinant Basigin (BSG/CD147, Sino Biological) (from UniProt P35613 138-325) (receptor)", "values": [{"measurement": "Kd", "setting": "[2]", "value": 430, "unit": "nM"}]}
{"molecule": "recombinant Cyclophilin B (Sino Biological) (natural protein)", "values": [{"measurement": "reduction of binding to merozoites after treatment with anti-RhopH3-C antibody", "setting": "[3]", "value": "> 50", "unit": "%"}]}
{"molecule": "B1", "values": [{"measurement": "Kd", "setting": "[4]", "value": 160, "unit": "nM"}, {"measurement": "Kd", "setting": "[5]", "value": 18, "unit": "nM"}]}
